In the supplement of paper PMC11246515:
± gives the standard deviation of the averaged measurements.

Experiment: total protein half-life in vivo (active degradation + dilution); higher = more stable protein
[1] = E. coli NCM3722 delta-clpP delta-lon delta-hslV, growth: N-lim chemostat, doubling time 6 h
[2] = E. coli NCM3722 delta-clpP, growth: N-lim chemostat, doubling time 6 h
[3] = E. coli NCM3722 delta-hslV, growth: N-lim chemostat, doubling time 6 h
[4] = E. coli NCM3722 delta-lon, growth: N-lim chemostat, doubling time 6 h
[5] = E. coli NCM3722 delta-smpB, growth: N-lim chemostat, doubling time 6 h
[6] = wild type E. coli NCM3722, growth: C-lim chemostat, doubling time 3 h
[7] = wild type E. coli NCM3722, growth: C-lim chemostat, doubling time 6 h
[8] = wild type E. coli NCM3722, growth: C-lim chemostat, doubling time 12 h
[9] = wild type E. coli NCM3722, growth: N-lim chemostat, doubling time 6 h
[10] = wild type E. coli NCM3722, growth: N-lim chemostat, doubling time 12 h
[11] = wild type E. coli NCM3722, growth: P-lim chemostat, doubling time 6 h
[12] = wild type E. coli NCM3722, growth: P-lim chemostat, doubling time 12 h

MLKVEMLSTGDEVLHGQIVDTNAAWLADFFFHQGLPLSRRNTVGDNLDDLVTILRERSQHADVLIVNGGLGPTSDDLSALAAATAKGEGLVLHEAWLKEMERYFHERGRVMAPSNRKQAELPASAEFINNPVGTACGFAVQLNRCLMFFTPGVPSEFKVMVEHEILPRLRERFSLPQPPVCLRLTTFGRSESDLAQSLDTLQLPPGVTMGYRSSMPIIELKLTGPASEQQAMEKLWLDVKRVAGQSVIFEGTEGLPAQISRELQNRQFSLTLSEQFTGGLLALQLSRAGAPLLACEVVPSQEETLAQTAHWITERRANHFAGLALAVSGFENEHLNFALATPDGTFALRVRFSTTRYSLAIRQEVCAMMALNMLRRWLNGQDIASEHGWIEVVESMTLSV
total protein half-life in vivo [1]: 4.98 ± 0.18 h | total protein half-life in vivo [2]: 4.36 ± 0.044 h | total protein half-life in vivo [3]: 4.01 ± 0.17 h | total protein half-life in vivo [4]: 4.79 ± 0.35 h | total protein half-life in vivo [5]: 4.32 ± 0.093 h | total protein half-life in vivo [6]: 3.098 ± 0.027 h | total protein half-life in vivo [7]: 5.27 ± 0.91 h | total protein half-life in vivo [8]: 9.19 ± 2.1 h | total protein half-life in vivo [9]: 3.94 ± 0.2 h | total protein half-life in vivo [10]: 6.9 ± 0.57 h | total protein half-life in vivo [11]: 6.25 ± 0.51 h | total protein half-life in vivo [12]: 11.2 ± 0.81 h

MLKVLLLFVLLIAGIVVGPMIAGHQGYVLIQTDNYNIETSVTGLAIILILAMVVLFAIEWLLRRIFRTGAHTRGWFVGRKRRRARKQTEQALLKLAEGDYQQVEKLMAKNADHAEQPVVNYLLAAEAAQQRGDEARANQHLERAAELAGNDTIPVEITRVRLQLARNENHAARHGVDKLLEVTPRHPEVLRLAEQAYIRTGAWSSLLDIIPSMAKAHVGDEEHRAMLEQQAWIGLMDQARADNGSEGLRNWWKNQSRKTRHQVALQVAMAEHLIECDDHDTAQQIIIDGLKRQYDDRLLLPIPRLKTNNPEQLEKVLRQQIKNVGDRPLLWSTLGQSLMKHGEWQEASLAFRAALKQRPDAYDYAWLADALDRLHKPEEAAAMRRDGLMLTLQNNPPQ [P0ACB7]
total protein half-life in vivo [1]: 5.91 ± 0.1 h | total protein half-life in vivo [2]: 6.4161 ± 0.0029 h | total protein half-life in vivo [4]: 6.1592 ± 0.004 h | total protein half-life in vivo [5]: 5.98 ± 0.073 h | total protein half-life in vivo [6]: 3.13 ± 0.12 h | total protein half-life in vivo [7]: 6.13 ± 0.2 h | total protein half-life in vivo [8]: 13.2 ± 0.85 h | total protein half-life in vivo [9]: 6.64 ± 0.65 h | total protein half-life in vivo [10]: 12.6 ± 0.5 h | total protein half-life in vivo [11]: 6.1 ± 0.41 h | total protein half-life in vivo [12]: 12.6 ± 0.95 h

MLLEQGWLVGARRVPSPHYDCRPDDETPTLLVVHNISLPPGEFGGPWIDALFTGTIDPQAHPFFAEIAHLRVSAHCLIRRDGEIVQYVPFDKRAWHAGVSQYQGRERCNDFSIGIELEGTDTLAYTDAQYQQLAAVTRALIDCYPDIAKNMTGHCDIAPDRKTDPGPAFDWARFRVLVSKETT
total protein half-life in vivo [1]: 5.19 ± 0.54 h | total protein half-life in vivo [2]: 3.72 h | total protein half-life in vivo [3]: 3.07 ± 0.013 h | total protein half-life in vivo [4]: 3.75 ± 0.89 h | total protein half-life in vivo [5]: 2.96 ± 0.27 h | total protein half-life in vivo [6]: 3.18 ± 0.31 h | total protein half-life in vivo [7]: 4.11 ± 0.3 h | total protein half-life in vivo [8]: 7.89 ± 1.5 h | total protein half-life in vivo [9]: 2.88 ± 0.77 h | total protein half-life in vivo [10]: 5.25 ± 0.51 h | total protein half-life in vivo [11]: 4.46 ± 0.12 h | total protein half-life in vivo [12]: 9.44 ± 0.099 h

MLLNALASLGHKGIKTLRTFGRAGLMLFNALVGKPEFRKHAPLLVRQLYNVGVLSMLIIVVSGVFIGMVLGLQGYLVLTTYSAETSLGMLVALSLLRELGPVVAALLFAGRAGSALTAEIGLMRATEQLSSMEMMAVDPLRRVISPRFWAGVISLPLLTVIFVAVGIWGGSLVGVSWKGIDSGFFWSAMQNAVDWRMDLVNCLIKSVVFAITVTWISLFNGYDAIPTSAGISRATTRTVVHSSLAVLGLDFVLTALMFGN
total protein half-life in vivo [2]: 6.31 h | total protein half-life in vivo [3]: 6.03 h | total protein half-life in vivo [4]: 4.82 h | total protein half-life in vivo [5]: 5.29 h | total protein half-life in vivo [6]: 3.19 h | total protein half-life in vivo [9]: 7.45 h | total protein half-life in vivo [10]: 11.3 h | total protein half-life in vivo [11]: > 8 h | total protein half-life in vivo [12]: 11.55 ± 0.11 h

MLMITSFANPRVAQAFVDYMATQGVILTIQQHNQSDVWLADESQAERVRAELARFLENPADPRYLAASWQAGHTGSGLHYRRYPFFAALRERAGPVTWVMMIACVVVFIAMQILGDQEVMLWLAWPFDPTLKFEFWRYFTHALMHFSLMHILFNLLWWWYLGGAVEKRLGSGKLIVITLISALLSGYVQQKFSGPWFGGLSGVVYALMGYVWLRGERDPQSGIYLQRGLIIFALIWIVAGWFDLFGMSMANGAHIAGLAVGLAMAFVDSLNARKRK
total protein half-life in vivo [1]: 5.94 ± 0.09 h | total protein half-life in vivo [2]: 7.254 ± 0.027 h | total protein half-life in vivo [5]: 4.85 h | total protein half-life in vivo [7]: 5.67 h | total protein half-life in vivo [8]: 7.94 h | total protein half-life in vivo [10]: 11.7 h | total protein half-life in vivo [11]: 5.84 h | total protein half-life in vivo [12]: 11.6 ± 1.8 h

MLNETPALAPDGQPYRLLTLRNNAGMVVTLMDWGATLLSARIPLSDGSVREALLGCASPECYQDQAAFLGASIGRYANRIANSRYTFDGETVTLSPSQGVNQLHGGPEGFDKRRWQIVNQNDRQVLFALSSDDGDQGFPGNLGATVQYRLTDDNRISITYRATVDKPCPVNMTNHVYFNLDGEQSDVRNHKLQILADEYLPVDEGGIPHDGLKSVAGTSFDFRSAKIIASEFLADDDQRKVKGYDHAFLLQAKGDGKKVAAHVWSADEKLQLKVYTTAPALQFYSGNFLGGTPSRGTEPYADWQGLALESEFLPDSPNHPEWPQPDCFLRPGEEYSSLTEYQFIAE [P0A9C3]
total protein half-life in vivo [1]: 5.1 ± 0.083 h | total protein half-life in vivo [2]: 4.67 ± 0.097 h | total protein half-life in vivo [4]: 4.63 ± 0.11 h | total protein half-life in vivo [5]: 4.275 ± 0.041 h | total protein half-life in vivo [6]: 3.16 ± 0.33 h | total protein half-life in vivo [7]: 6.76 ± 0.95 h | total protein half-life in vivo [8]: 12.3 ± 1.5 h | total protein half-life in vivo [9]: 4.71 ± 0.91 h | total protein half-life in vivo [10]: 7.76 ± 0.98 h | total protein half-life in vivo [11]: 6.38 ± 0.48 h
